# According to paper PMC4971492, “Structural basis for misregulation of kinesin KIF21A autoinhibition by CFEOM1 disease mutations” (Scientific Reports, 2016):
# Target: the molecule itself
# Test: cross-linking; cysteine (disulfide) cross-linking in COS-7 lysates, 1 h room temperature, SDS-PAGE under reducing and non-reducing conditions, anti-GFP Western blot
protein,measurement,value
"GFP-labelled CLIP-115 (natural protein, CLIP-115 (CAP-Gly domain-containing linker protein 2); Species surmised as rat; source: COS-7, transfected, in lysate; not shown: GFP (monomeric), N-terminal, kept) not shown",stoichiometry N,2
